In the assay the target is polyclonal antibodies in mouse sera specific for human PCSK9 aa 153-162 or aa 153-165. Kind of assay: competition ELISA, 20 ug peptide with sera, plate coated with m2 (competitor).

B1: … (peptide)
peptide: SIPWQLERITPPR
B1 yielded a % Competition compared to the related control group of 79%.

B2: … (peptide)
peptide: SIPANLERIT
B2: the % Competition compared to the related control group came to 8%.

B3: … (peptide)
peptide: SVPWNLEKLT
With B3, the % Competition compared to the related control group was found to be 11%.

B4: … (peptide)
peptide: SIPWNAERIT
B4: the % Competition compared to the related control group was 73%.

B5: … (peptide)
peptide: VQPWSLERTL
As to B5, the % Competition compared to the related control group is 48%.

B6: … (peptide)
peptide: SVPWSLERLT
For B6, the % Competition compared to the related control group is 74%.

B7: … (peptide)
peptide: SIPWNLDRITPPR
Consider B7, for which the % Competition compared to the related control group worked out at 53%.

B8: … (peptide)
peptide: SIPWALERIT
As for B8, the % Competition compared to the related control group amounted to 75%.

B9: … (peptide)
peptide: SIPWSLERIQ
For the molecule B9, the % Competition compared to the related control group is 44%.

B10: … (peptide)
peptide: SVPWNLERLT
B10 had a % Competition compared to the related control group of 57%.

B11: … (peptide)
peptide: SIAWNLERIT
Regarding B11, the % Competition compared to the related control group is 78%.

B12: … (peptide)
peptide: VIPWNLERTT
Consider B12, for which the % Competition compared to the related control group worked out at 69%.

B13: … (peptide)
peptide: SQPWNLERLT
Molecule B13 had a % Competition compared to the related control group of 69%.

B14: … (peptide)
peptide: SIPWNLERITAPR
With B14, the % Competition compared to the related control group came to 70%.

B15: … (peptide)
peptide: SQPWSLERTL
B15 had a % Competition compared to the related control group of 53%.

B16: … (peptide)
peptide: SIPWNLERITPPS
B16: the % Competition compared to the related control group amounted to 66%.

B17: … (peptide)
peptide: SIPWSLERIT
Take B17: the % Competition compared to the related control group came to 73%.

B18: … (peptide)
peptide: SIPWNLERITPPK
Consider B18, for which the % Competition compared to the related control group was determined as 66%.

B19: … (peptide)
peptide: SITWNLERIT
For the molecule B19, the % Competition compared to the related control group was determined as 62%.

B20: … (peptide)
peptide: SVPWNLERIL
For B20, the % Competition compared to the related control group amounted to 59%.

B21: … (peptide)
peptide: VIPWNLERIQ
Molecule B21 yielded a % Competition compared to the related control group of 47%.

B22: … (peptide)
peptide: SIPGNLERIT
In turn, B22 displayed a % Competition compared to the related control group of 0%.

B23: … (peptide)
peptide: SIPWNGERIT
The molecule B23 came in with a % Competition compared to the related control group of 52%.

B24: … (peptide)
peptide: SIPWNLERTT
With B24, the % Competition compared to the related control group was 73%.

B25: … (peptide)
peptide: SGPWNLERITPPR
Turning to B25, the % Competition compared to the related control group is 54%.

B26: … (peptide)
peptide: VIPWNLERIT
B26 registered a % Competition compared to the related control group of 51%.

B27: … (peptide)
peptide: SIPWNLERITPVR
As for B27, the % Competition compared to the related control group was found to be 75%.

B28: … (peptide)
peptide: SQPWNLERIT
B28 yielded a % Competition compared to the related control group of 30%.

B29: … (negative control) (peptide)
peptide: ITELSRWPNI
B29: the % Competition compared to the related control group worked out at 0%.

B30: … (peptide)
peptide: SIPWNLEDIT
Regarding B30, the % Competition compared to the related control group amounted to 13%.

B31: … (peptide)
peptide: SQPWNLERIL
As to B31, the % Competition compared to the related control group came to 69%.

B32: … (peptide)
peptide: SIPWNLERITPPA
On to B32, for which the % Competition compared to the related control group was found to be 65%.

B33: … (peptide)
peptide: SIPWNLARIT
In the case of B33, the % Competition compared to the related control group is 13%.

B34: … (peptide)
peptide: SIPWNDERIT
For B34, the % Competition compared to the related control group is 71%.

B35: … (peptide)
peptide: SIPSNLERIT
Molecule B35 had a % Competition compared to the related control group of 7%.

B36: … (peptide)
peptide: SIPWNFERITPPR
In the case of B36, the % Competition compared to the related control group turned out to be 79%.

B37: … (peptide)
peptide: SIPDNLERIT
Consider B37, for which the % Competition compared to the related control group stood at 3%.

B38: … (peptide)
peptide: SVPWNLERIQ
In the case of B38, the % Competition compared to the related control group was 61%.

B39: … (peptide)
peptide: SVPWNLERIT
The molecule B39 gave a % Competition compared to the related control group of 62%.

B40: … (peptide)
peptide: SQPWNLERIQ
The molecule B40 displayed a % Competition compared to the related control group of 66%.

B41: … (peptide)
peptide: SIPWDLERITPPR
For B41, the % Competition compared to the related control group came to 74%.

B42: … (negative control) (peptide)
peptide: ERTKSDPGAQHREF
As for B42, the % Competition compared to the related control group amounted to 0%.

B43: … (peptide)
peptide: SIPWNVERITPPR
Consider B43, for which the % Competition compared to the related control group worked out at 78%.

B44: … (peptide)
peptide: AIPWNLERIT
The molecule B44 returned a % Competition compared to the related control group of 88%.

B45: … (peptide)
peptide: SIPWNLERIL
B45 displayed a % Competition compared to the related control group of 56%.

B46: … (peptide)
peptide: SIPWNLERAT
Molecule B46 registered a % Competition compared to the related control group of 77%.

B47: … (peptide)
peptide: SVPWNLERTT
Turning to B47, the % Competition compared to the related control group is 73%.

B48: … (peptide)
peptide: VQPWSLERLL
Molecule B48 returned a % Competition compared to the related control group of 66%.

B49: … (peptide)
peptide: SIPWNLERITPAR
B49 came in with a % Competition compared to the related control group of 74%.

B50: … (peptide)
peptide: SIPWNLERITPPL
B50: the % Competition compared to the related control group came out at 66%.

B51: … (peptide)
peptide: SIPWNLERIA
B51 registered a % Competition compared to the related control group of 80%.

B52: … (peptide)
peptide: VIPWNLERIL
B52: the % Competition compared to the related control group is 49%.

B53: … (peptide)
peptide: SIPWNLERISPPR
B53: the % Competition compared to the related control group was found to be 79%.

B54: … (peptide)
peptide: SIPHNLERIT
Turning to B54, the % Competition compared to the related control group amounted to 0%.

B55: … (peptide)
peptide: TIPWNLERIT
B55: the % Competition compared to the related control group was 52%.

B56: … (peptide)
peptide: SIPWNLERITPTR
On to B56, for which the % Competition compared to the related control group was 73%.

B57: … (peptide)
peptide: SIPWNLERITPNR
B57 had a % Competition compared to the related control group of 70%.

B58: … (peptide)
peptide: SIVWNLERITPPR
For B58, the % Competition compared to the related control group came to 78%.

B59: … (peptide)
peptide: VIPWNLERLT
B59 came in with a % Competition compared to the related control group of 54%.
